Reference: patent publication US20180369322A1

Experiments:
monkey plasma proteins = assay: equilibrium dialysis, drug at 10 and 100 µM, monkey plasma
human plasma proteins = assay: equilibrium dialysis, drug at 10 and 100 µM, human plasma
rat plasma proteins = assay: equilibrium dialysis, drug at 10 and 100 µM, rat plasma

Measured: in vitro plasma protein binding

R5000 (peptide)
> 99.9%: monkey plasma proteins | human plasma proteins | rat plasma proteins
